From US11618906B2, “Hydroxylation techniques” (HYPHA DISCOVERY LTD., priority 2018, dated 2023)

How the values were obtained:
Assay type in all cases: biochemical
[1] = Metabolism of tivantinib by P450 aluC09 and mutants; details: percent of substrate being converted; 0.125 mg/ml, 27° C., 16-20 hours; [CYP] per enzyme as in Table 8
How it was run: (§1)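 Conversion by UPLC-MS after acetonitrile extraction of 16-20 h shaken reactions at 27° C. Each held 0.125 mg/ml substrate, aluC09 mutant P450 plus ferredoxin aluF03 and reductase SCF15A, and NADP (1 mM) regenerated by 5 mM G6P with G6PDH, buffered at pH 7.4 phosphate with 5 mM MgCl2.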

[2] = Hydroxylation of flufenamic acid catalysed by cytochrome P450 aluC09 and mutants; details: for Flufenamic Acid (Substrate) 1.93 mins / Hydroxy-Flufenamic Acid (1) 1.69 mins / Hydroxy-Flufenamic Acid (2) 1.65 mins: % by UV peak area at 275 nm, 0.125 mg/ml substrate, 27° C., 16-20 hours; for Hydroxylated Ratio 1:2: flufenamic acid, ratio of UV peak areas at 275 nm
How it was run: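 Conversion measured by UPLC-MS (UV and MS) after acetonitrile extraction, following 16-20 h shaking at 27° C. Reaction: 0.125 mg/ml substrate, P450 mutant plus ferredoxin aluF03 and reductase SCF15A, 5 mM G6P, 1 mM NADP, 2 U/ml G6PDH, pH 7.4 phosphate with 5 mM MgCl2.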

[3] = Metabolism of 4-pyrrolidylacetophenone by P450 aluC09 and mutants; details: percent of substrate being converted; 0.125 mg/ml, 27° C., 16-20 hours; [CYP] per enzyme as in Table 8
How it was run: as §1

[4] = Metabolism of bosentan by P450 aluC09 and mutants; details: percent of substrate being converted; 0.125 mg/ml, 27° C., 16-20 hours; [CYP] per enzyme as in Table 8
How it was run: as §1

[5] = Metabolism of buparvaquone by P450 aluC09 and mutants; details: percent of substrate being converted; 0.125 mg/ml, 27° C., 16-20 hours; [CYP] per enzyme as in Table 8
How it was run: as §1

[6] = O-demethylation of indomethacin catalysed by cytochrome P450 aluC09 and mutants; details: % by UV peak area at 275 nm; 0.125 mg/ml substrate, 27° C., 16-20 hours
How it was run: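 Conversion was quantified by UPLC-UV/MS after acetonitrile extraction of 16-20 h, 27° C. shaken reactions. These contained 0.125 mg/ml substrate, mutant P450 with partner ferredoxin and reductase, 1 mM NADP plus 5 mM G6P and 2 U/ml G6PDH, in pH 7.4 phosphate with 5 mM MgCl2.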

[7] = Metabolism of BIRB796 by P450 aluC09 and mutants; details: percent of substrate being converted; 0.125 mg/ml, 27° C., 16-20 hours; [CYP] per enzyme as in Table 8
How it was run: as §1

[8] = Metabolism of epothilone B by P450 aluC09 and mutants; details: percent of substrate being converted; 0.125 mg/ml, 27° C., 16-20 hours; [CYP] per enzyme as in Table 8
How it was run: as §1

[9] = Hydroxylation of aceclofenac catalysed by cytochrome P450 aluC09 and mutants; details: for Aceclofenac (Substrate) (1.80 mins) / Dihydroxy-Aceclofenac (1.42 mins) / Hydroxy-Aceclofenac (1) (1.64 min) / Hydroxy-Aceclofenac (2) (1.60 min): % by UV peak area at 275 nm, 0.125 mg/ml substrate, 27° C., 16-20 hours; for Hydroxylated Ratio 2:1: aceclofenac, ratio of UV peak areas at 275 nm
How it was run: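 Conversion was assessed by UPLC-MS (UV and MS detection) after acetonitrile extraction of reactions run 16-20 h at 27° C, shaking. Reactions contained substrate at 0.125 mg/ml, P450 mutant plus ferredoxin and reductase partners, 1 mM NADP with glucose-6-phosphate regeneration, in phosphate buffer pH 7.4.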

[10] = Metabolism of ruxolitinib by P450 aluC09 and mutants; details: percent of substrate being converted; 0.125 mg/ml, 27° C., 16-20 hours; [CYP] per enzyme as in Table 8
How it was run: as §1

[11] = Hydroxylation of diclofenac catalysed by cytochrome P450 aluC09 and mutants (UPLC-PDA-MS); details: for 4′,5-dihydroxy-diclofenac 1.38 mins / 4′-hydroxy-diclofenac (1) 1.62 mins / 5-hydroxy-diclofenac (2) 1.58 mins / Diclofenac (Substrate) 1.81 mins: % by UV peak area at 275 nm, 0.125 mg/ml substrate, 27° C., 16-20 hours; for Hydroxylated Ratio hydroxy 1:hydroxy 2: diclofenac, ratio of UV peak areas at 275nm
How it was run: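 Conversion of diclofenac (0.125 mg/ml) to hydroxy metabolites measured by UPLC with UV and MS detection, identities confirmed by authentic samples. Reactions used P450 aluC09 variants with ferredoxin aluF03, reductase SCF15A and an NADP/G6P/G6PDH recycling system, pH 7.4 phosphate, 27° C, 16-20 hours.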

[12] = Metabolism of tofacitinib by P450 aluC09 and mutants; details: percent of substrate being converted; 0.125 mg/ml, 27° C., 16-20 hours; [CYP] per enzyme as in Table 8
How it was run: as §1

[13] = Metabolism of ritonavir by P450 aluC09 and mutants; details: percent of substrate being converted; 0.125 mg/ml, 27° C., 16-20 hours; [CYP] per enzyme as in Table 8
How it was run: as §1

[14] = Metabolism of valsartan by P450 aluC09 and mutants; details: percent of substrate being converted; 0.125 mg/ml, 27° C., 16-20 hours; [CYP] per enzyme as in Table 8
How it was run: as §1

[15] = Hydroxylation / de-N-ethylation of napropamide catalysed by cytochrome P450 aluC09 and mutants; details: for Desethyl Napropamide (1.62 min) / Desethyl-hydroxy-Napropamide (1.41 min) / Hydroxy-Napropamide (1) (1.53 min) / Hydroxy-Napropamide (2), (1.52 min) / M-2Da (unidentified) (1.89 min) / Napropamide (substrate): % by UV peak area at 275 nm, 0.125 mg/ml substrate, 27° C., 16-20 hours; for Hydroxylated Ratio 2:1: napropamide, ratio of UV peak areas
How it was run: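 Conversion of napropamide (0.125 mg/ml) to hydroxylated and de-ethylated metabolites was measured by UPLC-MS after acetonitrile extraction. Reactions ran 16-20 h at 27° C in pH 7.4 potassium phosphate (50 mM) with 5 mM MgCl2, 1 mM NADP, 5 mM G6P and 2 UN/ml G6PDH. Enzymes were lyophilised P450 aluC09 variants, ferredoxin aluF03 and ferredoxin reductase SCF15A.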

[16] = Metabolism of celecoxib by P450 aluC09 and mutants; details: percent of substrate being converted; 0.125 mg/ml, 27° C., 16-20 hours; [CYP] per enzyme as in Table 8
How it was run: as §1

Molecule	% conversions (avg) Tivantinib [1] [%]	Flufenamic Acid (Substrate) 1.93 mins [2] [%]	Hydroxy-Flufenamic Acid (1) 1.69 mins [2] [%]	Hydroxy-Flufenamic Acid (2) 1.65 mins [2] [%]	Hydroxylated Ratio 1:2 [2]	% conversions (avg) 4-pyrrolidylacetophenone [3] [%]	% conversions (avg) Bosentan [4] [%]	% conversions (avg) Buparvaquone [5] [%]	Indomethacin (1.74 mins) [6] [%]	O-demethyl-Indomethacin (1.52 mins) [6] [%]	% conversions (avg) BIRB796 [7] [%]	% conversions (avg) Epothilone B [8] [%]	Aceclofenac (Substrate) (1.80 mins) [9] [%]	Dihydroxy-Aceclofenac (1.42 mins) [9] [%]	Hydroxy-Aceclofenac (1) (1.64 min) [9] [%]	Hydroxy-Aceclofenac (2) (1.60 min) [9] [%]	Hydroxylated Ratio 2:1 [9]	% conversions (avg) Ruxolitinib [10] [%]	4′,5-dihydroxy-diclofenac 1.38 mins [11] [%]	4′-hydroxy-diclofenac (1) 1.62 mins [11] [%]	further results
aluC09M38: cytochrome P450 aluC09 mutant T291H; amino acid sequence SEQ ID NO: 64 (protein, listed as Amycolatopsis lurida) MTDVEETTATLPLARKCPFSPPPEYERLRRESPVSRVGLPSGQTAWALTRLEDIREMLSSPHFSSDRQSPSFPLMVARQIRREDKPFRPSLIAMDPPEHSRARRDVVGEFTVKRMKALQPRIQQIVDEHLDALLAGPKPADLVQALSLPVPSLVICELLGVPYSDHEFFQSCSSRMLSREVTAEERMTAFEQLENYLDELVTKKEANATEDDLLGRQILKQRETGEADHGELVGLAFLLLIAGHETTANMISLGTVTLLENPDQLAKIKADPGKTLAAIEELLRVFTIAEHATSRFATADVEIGGTLIRAGEGVVGLSNAGNHDPDGFENPDTFDIERGARHHVAFGFGVHQCLGQNLARLELQIVFDTLFRRVPGLRIAVPVDELPFKHDSTIYGLHALPVTW	27.6	95.3	2.9	1.8	1.6	2.9	98.7	4.1	83.8	16.2	13.6	13.4	29.8	28.9	11.9	29.4	2.5	30.8	2.9	44.5	5-hydroxy-diclofenac (2) 1.58 mins [11]: 18.9%; Diclofenac (Substrate) 1.81 mins [11]: 35.6%; Hydroxylated Ratio hydroxy 1:hydroxy 2 [11]: 2.4; % conversions (avg) Tofacitinib [12]: 0.7%; % conversions (avg) Ritonavir [13]: 64.2%; % conversions (avg) Valsartan [14]: 61.9%; Desethyl Napropamide (1.62 min) [15]: 45.6%; Desethyl-hydroxy-Napropamide (1.41 min) [15]: 3.8%; Hydroxy-Napropamide (1) (1.53 min) [15]: 1.0%; Hydroxy-Napropamide (2), (1.52 min) [15]: 3.9%; M-2Da (unidentified) (1.89 min) [15]: 6.2%; Napropamide (substrate) [15]: 41.1%; Hydroxylated Ratio 2:1 [15]: 3.9; % conversions (avg) Celecoxib [16]: 2.3%
aluC09: wild-type cytochrome P450 aluC09 from Amycolatopsis lurida NRRL-2430; amino acid sequence SEQ ID NO: 2 (protein, listed as Amycolatopsis lurida) MTDVEETTATLPLARKCPFSPPPEYERLRRESPVSRVGLPSGQTAWALTRLEDIREMLSSPHFSSDRQSPSFPLMVARQIRREDKPFRPSLIAMDPPEHSRARRDVVGEFTVKRMKALQPRIQQIVDEHLDALLAGPKPADLVQALSLPVPSLVICELLGVPYSDHEFFQSCSSRMLSREVTAEERMTAFEQLENYLDELVTKKEANATEDDLLGRQILKQRETGEADHGELVGLAFLLLIAGHETTANMISLGTVTLLENPDQLAKIKADPGKTLAAIEELLRVFTIAETATSRFATADVEIGGTLIRAGEGVVGLSNAGNHDPDGFENPDTFDIERGARHHVAFGFGVHQCLGQNLARLELQIVFDTLFRRVPGLRIAVPVDELPFKHDSTIYGLHALPVTW	41.4	93.1	4.5	2.4	1.9	5.6	98.8	14	83.6	16.4	13.4	18.4	18.0	36.5	5.7	39.8	7.0	46.6	3.1	27.0	5-hydroxy-diclofenac (2) 1.58 mins [11]: 26.2%; Diclofenac (Substrate) 1.81 mins [11]: 45.2%; Hydroxylated Ratio hydroxy 1:hydroxy 2 [11]: 1.0; % conversions (avg) Tofacitinib [12]: 1.4%; % conversions (avg) Ritonavir [13]: 59.6%; % conversions (avg) Valsartan [14]: 28.9%; Desethyl Napropamide (1.62 min) [15]: 44.8%; Desethyl-hydroxy-Napropamide (1.41 min) [15]: 5.4%; Hydroxy-Napropamide (1) (1.53 min) [15]: 2.0%; Hydroxy-Napropamide (2), (1.52 min) [15]: 4.0%; M-2Da (unidentified) (1.89 min) [15]: 6.6%; Napropamide (substrate) [15]: 39.3%; Hydroxylated Ratio 2:1 [15]: 2.1; % conversions (avg) Celecoxib [16]: 2.5%
